Data from IntAct's records for PubMed 20980406.

B1: Band 3 anion transport protein (Homo sapiens), P02730 (parent)
chain: MEELQDDYEDMMEENLEQEEYEDPDIPESQMEEPAAHDTEATATDYHTTSHPGTHKVYVELQELVMDEKNQELRWMEAARWVQLEENLGENGAWGRPHLSHLTFWSLLELRRVFTKGTVLLDLQETSLAGVANQLLDRFIFEDQIRPQDREELLRALLLKHSHAGELEALGGVKPAVLTRSGDPSQPLLPQHSSLETQLFCEQGDGGTEGHSPSGILEKIPPDSEATLVLVGRADFLEQPVLGFVRLQEAAELEAVELPVPIRFLFVLLGPEAPHIDYTQLGRAAATLMSERVFRIDAYMAQSRGELLHSLEGFLDCSLVLPPTDAPSEQALLSLVPVQRELLRRRYQSSPAKPDSSFYKGLDLNGGPDDPLQQTGQLFGGLVRDIRRRYPYYLSDITDAFSPQVLAAVIFIYFAALSPAITFGGLLGEKTRNQMGVSELLISTAVQGILFALLGAQPLLVVGFSGPLLVFEEAFFSFCETNGLEYIVGRVWIGFWLILLVVLVVAFEGSFLVRFISRYTQEIFSFLISLIFIYETFSKLIKIFQDHPLQKTYNYNVLMVPKPQGPLPNTALLSLVLMAGTFFFAMMLRKFKNSSYFPGKLRRVIGDFGVPISILIMVLVDFFIQDTYTQKLSVPDGFKVSNSSARGWVIHPLGLRSEFPIWMMFASALPALLVFILIFLESQITTLIVSKPERKMVKGSGFHLDLLLVVGMGGVAALFGMPWLSATTVRSVTHANALTVMGKASTPGAAAQIQEVKEQRISGLLVAVLVGLSILMEPILSRIPLAVLFGIFLYMGVTSLSGIQLFDRILLLFKPPKYHPDVPYVKRVKTWRMHLFTGIQIICLAVLWVVKSTPASLALPFVLILTVPLRRVLLPLIFRNVELQCLDADDAKATFDEEEGRDEYDEVAMPV

Variants of: B1
Conditions: with g3p_rabit GAPDH

Row | Variant | effect of a mutation on the interaction
1 | D902A;E903A | decreasing interaction strength
2 | D905A;E906A | with no effect
3 | Y904A | decreasing interaction strength
